Patent publication US20050209141A1

T1: human angiotensinogen (Sigma), P01019
T1 chain: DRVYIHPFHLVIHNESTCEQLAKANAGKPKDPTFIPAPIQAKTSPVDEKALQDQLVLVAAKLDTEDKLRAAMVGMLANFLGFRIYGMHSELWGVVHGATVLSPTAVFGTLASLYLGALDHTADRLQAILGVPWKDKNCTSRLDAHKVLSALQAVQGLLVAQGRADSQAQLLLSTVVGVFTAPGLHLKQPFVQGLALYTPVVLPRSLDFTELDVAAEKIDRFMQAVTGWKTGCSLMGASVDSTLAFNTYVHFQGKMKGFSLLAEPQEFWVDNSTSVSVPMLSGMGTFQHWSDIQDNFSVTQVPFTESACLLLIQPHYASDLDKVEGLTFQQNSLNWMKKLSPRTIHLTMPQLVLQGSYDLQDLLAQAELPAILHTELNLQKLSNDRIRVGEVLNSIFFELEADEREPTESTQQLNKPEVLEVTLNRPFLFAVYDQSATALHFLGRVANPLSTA


How the values were obtained:
[1] = target: guinea pig angiotensin type 1 receptor on cardiac sympathetic nerve endings (guinea pig); assay: cell-based or functional assay
[2] = target: angiotensin II receptor (AT1AR) transfected into human neuroblastoma SH-SY5Y cells (SH-SY5Y-AT1A cells); assay: cell-based or functional assay
[3] = target: T1, human angiotensinogen (Sigma), P01019

Row | Molecule | norepinephrine release from guinea-pig cardiac sympathetic nerve endings [1] | release of [3H]MPP+ from SH-SY5Y-AT1A cells [2] | ANG I activity of HMC-1 releasate with 240 nM angiotensinogen, with or without BILA2157 [3] | ANG I formed (renin activity) by RIA [3] | ANG I formed (renin activity) by RIA, with or without BILA2157 (100 nM) [3]
1 | angiotensin II (peptide) | 27% | 20% | – | – | –
2 | human renin of the human mast cell line HMC-1 (cells, lysate and releasate) (protein) LTLGNTTSSVILTNYMDTQYYGEIGIGTPPQTFKVVFDTGSSNVWVPSSKCSRLYTACVYHKLFDASDSSSYKHNGTELTLRYSTGTVSGFLSQDIITVGGITVTQMFGEVTEMPALPFMLAEFDGVVGMGFIEQAIGRVTPIFDNIISQGVLKEDVFSFYYNRDSENSQSLGGQIVLGGSDPQHYEGNFHYINLIKTGVWQIQMKGVSVGSSTLLCEDGCLALVDTGASYISGSTSSIEKLMEALGAKKRLFDYVVKCNEGPTLPDISFHLGGKEYTLTSADYVFQESYSSKKLCTLAIHAMDIPPPTGPTWALGATFIRKFYTEFDRRNNRIGFALAR | – | – | about 70% of the ANG I activity measured in the presence of 240 nM angiotensinogen, is due to BILA2157-sensitive renin | The amount of ANG I formed increased with angiotensinogen concentration. | ˜70% of the total ANG I formed originates from renin
